Legend:
[1] = target: Biotinylated human BSSL (human) (UniProt P19835); assay: SPR single cycle kinetics, scFv captured by anti-FLAG M2
[2] = target: Biotinylated human BSSL (human) (UniProt P19835); assay: ELISA, b-hBSSL coated through streptavidin at 1 µg/ml, detection HRP anti-FLAG M2, A450
[3] = target: Biotinylated human BSSL (human) (UniProt P19835); assay: flow cytometry displacement assay; 1.5 ug antibody, 1 ug b-hBSSL
[4] = target: Biotinylated human BSSL (human) (UniProt P19835); assay: flow cytometry displacement assay; 3.0 ug antibody, 1 ug b-hBSSL

Biotinylated human BSSL (human), sequence (P19835 other isoform, or with tags, fused parts or gaps): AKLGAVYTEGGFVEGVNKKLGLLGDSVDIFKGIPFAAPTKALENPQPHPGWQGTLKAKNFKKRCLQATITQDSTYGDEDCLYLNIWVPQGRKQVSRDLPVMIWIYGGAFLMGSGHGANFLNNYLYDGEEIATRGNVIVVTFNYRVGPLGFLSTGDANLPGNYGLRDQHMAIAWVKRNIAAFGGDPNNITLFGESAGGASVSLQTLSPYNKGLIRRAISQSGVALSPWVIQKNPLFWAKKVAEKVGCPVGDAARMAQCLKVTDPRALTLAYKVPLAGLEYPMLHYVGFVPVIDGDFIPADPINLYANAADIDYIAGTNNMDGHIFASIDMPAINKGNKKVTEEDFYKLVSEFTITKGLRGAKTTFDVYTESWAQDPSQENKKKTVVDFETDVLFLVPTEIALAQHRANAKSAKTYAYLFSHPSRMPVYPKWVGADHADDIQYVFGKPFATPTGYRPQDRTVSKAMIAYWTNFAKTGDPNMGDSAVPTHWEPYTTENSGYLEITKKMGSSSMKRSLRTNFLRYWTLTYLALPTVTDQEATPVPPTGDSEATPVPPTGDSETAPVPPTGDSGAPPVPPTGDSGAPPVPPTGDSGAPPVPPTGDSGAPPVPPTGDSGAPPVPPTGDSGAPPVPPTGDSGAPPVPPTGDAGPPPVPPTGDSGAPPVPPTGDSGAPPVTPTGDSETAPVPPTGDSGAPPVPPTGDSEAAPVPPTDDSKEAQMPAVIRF

B1: AS20 scFv (scFv, V domains shown, not shown: small tags and cut ends)
VH: QVQLQQPGAELVKPGASVKMSCKASGYTFTSYNMHWVKQTPGQGLEWIGVIYPGNGDTSYNQKFKGKATLTADKSSSTAYMQLSSLTSEDSAVYYCARDYYGSSPLGYWGQGTTLTVSS
VL: QIVLTQSPAVMSASPGEKVTMTCSASSSISYMHWYQQKPGTSPKRWIYDTSKLASGVPARFSGSGSGTSYSLTISSMEAEDAATYYCHQRSSYPTFGGGTKLEIK
modifications: Gly-Ser linker; C-terminal 3xFLAG and His6 tags
With B1 the Kd [1] was 0.8 nM, the koff [1] was 4.4e-05 s⁻¹ and the kon [1] was 55000 M⁻¹ s⁻¹. For the same binder, the EC50 (read off the curve) [2] was 0.02 µg/mL.

B2: S-SL048-75 hIgG4 S228P (antibody, V domains shown)
VH: QVQLVQSGAEVKKPGASVKVSCKASGYTFTSYNMHWVRQAPGQGLEWMGVIYPGGGYTSYAQKFKGRVTMTRDTSTSTVYMELSSLRSEDTAVYYCARDYYGSSPLGYWGQGTLVTVSS
VL: DIQMTQSPSSLSASVGDRVTITCRASQSISYLNWYQQKPGKAPKLLIYATSNLQSGVPSRFSGSGSGTDFTLTISSLQPEDFATYYCHQRSSSPTFGQGTKLEIK
In the case of B2, the percentage reduction of b-hBSSL binding to CD14+ monocytes [3] is reported as 3% and the percentage reduction of b-hBSSL binding to CD14+ monocytes [4] is reported as 0%.

Source: patent US20220267469A1
